The source of these data is publication PMC6170153, “Structures reveal opening of the store-operated calcium channel Orai” (eLife, 2018).

Changes are numbered by the printed parent chain. In names and notes the source's numbering stands.

Data set [1] concerns the molecule itself. Description: crystal structure; H206A Orai_(cryst), space group I4_(1), 6.7 Å, 24 subunits (four channels) in the asymmetric unit, 24-fold NCS averaging; crystals grown in 36-38% PEG400, 500 mM NaCl, 100 mM Tris-HCl pH 9.0.
Data set [2] deals with the molecule itself. As to the kind of experiment: crystal structure; K163W Orai_(cryst), space group I4_(1), 6.1 Å, MIRAS, 24-fold NCS averaging; crystals grown in 26-28% PEG 400, 150 mM NaCl, 100 mM HEPES pH 7.5.
Data set [3] concerns the molecule itself. As to the kind of experiment: crystal structure; WT Orai_(cryst), space group I4_(1), 6.9 Å, MR-SAD, 24-fold NCS averaging; crystals grown in 32-35% PEG 400, 0.1 M potassium phosphate pH 7.5.

B1: H206A Orai_(cryst) (natural protein, Drosophila melanogaster, UniProt Q9U6B8 133-341, looked up)
chain: MSQSGEDLHSPTYLSWRKLQLSRAKLKASSKTSALLSGFAMVAMVEVQLDHDTNVPPGMLIAFAICTTLLVAVAMLALMISTCILPNIETVSNLHSISLVHESPHERLHWYIETAWAFSTLLGLILFLLEIAILCWVKFYDLSPPAAWSATVVLIPVMIIFMAFAIHFYRSLVSHKYEVTVSGIRELEMLKEQMEQDHLEHHNNIRNNG
notes: Hexameric channel; The model holds residues 148-327 without 181-191 and 220-239; also called open conformation
Turning to B1, the “stoichiometry N” value in data set [1] is 6.

B2: K163W Orai_(cryst) (natural protein, Drosophila melanogaster, UniProt Q9U6B8 133-341, looked up)
chain: B1 chain with K31W, A74H
notes: Hexameric channel, solved in two crystal forms (I4_(1) and P4_(2)2_(1)2); also called K163W mutant
Turning to B2, the “stoichiometry N” value in data set [2] was 6.

B3: WT Orai_(cryst) (natural protein, Drosophila melanogaster, UniProt Q9U6B8 133-341, looked up)
chain: B1 chain with A74H
notes: Drosophila melanogaster Orai, amino acids 133-341, with C224S and C283T (made to improve stability); wild-type Pro276 and Pro277; 24 subunits in four channels in the asymmetric unit (24-fold NCS), which makes six a channel; The model holds residues 148-327 without 181-191 and 220-239; also called wild-type (WT) Orai_(cryst); unlatched-closed conformation
With B3, the binding result in data set [3] was “binds”.

One may read the stoichiometry N as a count of units in the complex or per binding partner.
